Measured values taken from publication PMC12005765 (Advanced Science, 2025).

Columns and labels:
Assay in all cases: SPR; IgGs or Fc fusions captured on antihuman Fc polyclonal antibodies amine-coupled to a CM5 chip; spike trimer or CD3 epsilon-delta heterodimer injected; blank flow cell subtracted; 1:1 Langmuir model, simultaneous global fit of ka and kd, KD = kd/ka; BIAcore 2000 (methods) or BIAcore T100 (footnote of Table S3)
[1] = molecular target: SA07, anti-S/CD3 bispecific antibody-like molecule from ACE2-Fc/UCHT1 (UniProt Q9BYF1)
[2] = molecular target: SS12, anti-S/CD3 bispecific CrossMab from S3H3/UCHT1
Chain of SS12, anti-S/CD3 bispecific CrossMab from S3H3/UCHT1 (heavy, as listed by the source, chain 1 of 4): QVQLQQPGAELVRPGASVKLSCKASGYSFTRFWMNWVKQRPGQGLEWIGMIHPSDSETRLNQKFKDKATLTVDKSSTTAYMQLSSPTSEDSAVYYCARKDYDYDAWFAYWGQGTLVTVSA
Chain of SS12, anti-S/CD3 bispecific CrossMab from S3H3/UCHT1 (heavy, as listed by the source, chain 2 of 4): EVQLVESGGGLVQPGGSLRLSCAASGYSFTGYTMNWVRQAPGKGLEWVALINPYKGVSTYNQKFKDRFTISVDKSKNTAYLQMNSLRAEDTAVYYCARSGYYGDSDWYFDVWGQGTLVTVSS
Chain of SS12, anti-S/CD3 bispecific CrossMab from S3H3/UCHT1 (light, as listed by the source, chain 3 of 4): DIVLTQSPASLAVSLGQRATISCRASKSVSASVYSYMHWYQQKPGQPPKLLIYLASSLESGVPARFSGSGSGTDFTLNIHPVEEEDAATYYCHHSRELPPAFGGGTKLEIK
Chain of SS12, anti-S/CD3 bispecific CrossMab from S3H3/UCHT1 (light, as listed by the source, chain 4 of 4): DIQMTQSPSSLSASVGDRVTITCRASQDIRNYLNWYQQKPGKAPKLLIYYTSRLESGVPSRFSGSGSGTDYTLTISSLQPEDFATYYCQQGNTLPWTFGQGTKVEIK

[3] = molecular target: ectodomain of the S trimer from the prototypic SARS-CoV-2 Wuhan-Hu-1 strain (SARS-CoV-2 Wuhan-Hu-1) (UniProt P0DTC2)

Row | Substance | Kd [1] [nM] | Kd [2] [nM] | Kd [3] [nM] | koff [3] [s⁻¹] | kon [3] [M⁻¹ s⁻¹]
1 | ectodomain of the S trimer from the prototypic SARS-CoV-2 Wuhan-Hu-1 strain (from UniProt P0DTC2 14-1213) (domain or fragment) | 9.39 | 6.2 |  |  | 
2 | SC02, anti-S/CD3 bispecific CrossMab from CV3-25/UCHT1 (bispecific antibody) |  |  | 4.82 | 0.00436 | 904000
